Like-named read-outs stand apart in the source and are kept apart here.
Columns and labels:
[1] = target: Empty HBV Cp183 capsid (Hepatitis B Virus (strain not stated)) (UniProt P03147); assay: negative stain TEM, 2D class averages
[2] = target: Empty HBV Cp183 capsid (Hepatitis B Virus (strain not stated)) (UniProt P03147); assay: charge detection mass spectrometry
[3] = target: Empty HBV Cp183 capsid (Hepatitis B Virus (strain not stated)) (UniProt P03147); assay: charge detection mass spectrometry; remark: listed apart in the source
[4] = target: Empty HBV Cp183 capsid (Hepatitis B Virus (strain not stated)) (UniProt P03147); assay: charge detection mass spectrometry; remark: listed apart in the source

UniProt P03147, sequence (P03147 whole entry): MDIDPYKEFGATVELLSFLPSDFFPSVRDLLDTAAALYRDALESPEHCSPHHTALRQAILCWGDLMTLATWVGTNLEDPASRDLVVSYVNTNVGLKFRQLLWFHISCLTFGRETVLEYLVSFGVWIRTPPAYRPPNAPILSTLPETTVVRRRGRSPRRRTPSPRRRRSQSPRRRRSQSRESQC

## Importin β (from UniProt Q14974 1-876) (natural protein)
[1]
  percent of empty capsids with externally bound Impβ: 90%
  percent of particles with visible, externally bound Impβ: 48%
[2]
  stoichiometry N (Impβ per capsid): 38
[3]
  stoichiometry N (Impβ per capsid): 38
[4]
  stoichiometry N (Impβ per capsid): 64
